Data as given in the Immune Epitope Database (IEDB).

Columns and labels:
[1] = biological target: HLA-A*32:01; test: IEDB peptide-MHC binding, purified MHC/competitive/radioactivity; filed as Kd, often an IC50 or EC50 that approximates it; ≥ and ≤ were set here for values at or beyond the usual limits of such assays
[2] = biological target: HLA-A*29:02; test: as above
[3] = biological target: HLA-A*26:01; test: as above
[4] = biological target: HLA-A*30:02; test: as above
[5] = biological target: HLA-A*30:01; test: as above
[6] = biological target: HLA-A*01:01; test: as above
[7] = biological target: HLA-B*15:01; test: as above
[8] = biological target: HLA-A*23:01; test: as above
[9] = biological target: HLA-A*24:02; test: as above
[10] = biological target: HLA-A*24:02; test: IEDB peptide-MHC binding, purified MHC/competitive/fluorescence; ≥ and ≤ were set here for values at or beyond the usual limits of such assays
[11] = biological target: HLA-A*68:01; test: IEDB peptide-MHC binding, purified MHC/competitive/radioactivity; filed as Kd, often an IC50 or EC50 that approximates it; ≥ and ≤ were set here for values at or beyond the usual limits of such assays; details: source organism: Dengue virus 1 Brazil/97-11/1997
[12] = biological target: HLA-A*02:01; test: IEDB peptide-MHC binding, purified MHC/competitive/fluorescence; ≥ and ≤ were set here for values at or beyond the usual limits of such assays
[13] = biological target: HLA-B*15:01; test: IEDB peptide-MHC binding, purified MHC/competitive/fluorescence; filed as Kd, often an IC50 or EC50 that approximates it; ≥ and ≤ were set here for values at or beyond the usual limits of such assays
[14] = source organism: Mammarenavirus lassaense
[15] = source organism: Dengue virus 3 Martinique/1243/1999
[16] = source organism: Vaccinia virus WR
[17] = source organism: Dengue virus 2 Jamaica/1409/1983
[18] = source organism: SARS coronavirus Tor2
[19] = source organism: Lymphocytic choriomeningitis virus (strain Armstrong)
[20] = source organism: Zaire ebolavirus
[21] = source organism: Vaccinia virus
[22] = source organism: Sudan ebolavirus
[23] = source organism: Mammarenavirus brazilense
[24] = source organism: Mammarenavirus oliverosense
[25] = source organism: Mammarenavirus juninense

**Q.** What does the source list for AAHSARPPPY?
**A.** Kd [1, 14]: 2410 nM; Kd [2, 14]: 272 nM; Kd [3, 14]: 2280 nM; Kd [4, 14]: 4570 nM; Kd [5, 14]: 114 nM; Kd [6, 14]: 18800 nM

**Q.** Which Kd [1, 15] does the source give for AGVLARWGTF here?
**A.** 8420 nM

**Q.** Which Kd [1, 16] does the source give for AINFKIFNI here?
**A.** 22.1 nM

**Q.** Which Kd [7, 17] does the source give for AQKRAAAGIM here?
**A.** 68.7 nM

**Q.** Which Kd [8, 18] does the source give for AWEILKFLI here?
**A.** 3630 nM

**Q.** What about the Kd [9, 18] of the same sequence?
**A.** 2960 nM

**Q.** And the Kd [2, 18]?
**A.** 4100 nM

**Q.** And the Kd [3, 18]?
**A.** ≥ 57000 nM

**Q.** And the Kd [4, 18]?
**A.** ≥ 25300 nM

**Q.** What about the Kd [6, 18] of the same sequence?
**A.** ≥ 78100 nM

**Q.** For AYNVVNKGHF, which Kd [8, 18] is on record?
**A.** 476 nM

**Q.** What about the Kd [9, 18] of the same sequence?
**A.** 316 nM

**Q.** What about the Kd [2, 18] of the same sequence?
**A.** 978 nM

**Q.** And the Kd [3, 18]?
**A.** ≥ 37500 nM

**Q.** And the Kd [4, 18]?
**A.** 11200 nM

**Q.** What about the Kd [6, 18] of the same sequence?
**A.** ≥ 55200 nM

**Q.** CSANNSHHY was tested. Which Kd [1, 19] did it give?
**A.** ≥ 49800 nM

**Q.** And the Kd [2, 19]?
**A.** 522 nM

**Q.** What about the Kd [3, 19] of the same sequence?
**A.** 8050 nM

**Q.** And the Kd [4, 19]?
**A.** 10.6 nM

**Q.** And the Kd [5, 19]?
**A.** ≥ 43700 nM

**Q.** And the Kd [6, 19]?
**A.** 10.2 nM

**Q.** How did the IC50 [10, 20] turn out when DFFSSHPLR was run?
**A.** ≥ 124000 nM

**Q.** How did the IC50 [10, 16] turn out when DYGLVSKFM was run?
**A.** 559 nM

**Q.** Which IC50 [10, 20] does the source give for EGAAIGLAW here?
**A.** 2320 nM

**Q.** Which Kd [3, 15] does the source give for EMCDDTVTY here?
**A.** 11200 nM

**Q.** What about the Kd [7, 15] of the same sequence?
**A.** 99 nM

**Q.** And the Kd [4, 15]?
**A.** ≥ 76900 nM

**Q.** Which IC50 [10, 16] does the source give for EQAFYTRVL here?
**A.** 58800 nM

**Q.** With ESVKTQFNY as the sequence, how does the Kd [8, 18] read?
**A.** ≥ 77800 nM

**Q.** What about the Kd [9, 18] of the same sequence?
**A.** ≥ 77600 nM

**Q.** What about the Kd [2, 18] of the same sequence?
**A.** 31.2 nM

**Q.** And the Kd [3, 18]?
**A.** 902 nM

**Q.** And the Kd [4, 18]?
**A.** 505 nM

**Q.** What about the Kd [6, 18] of the same sequence?
**A.** 2610 nM

**Q.** Which results are given for EVMRSRWSRK?
**A.** Kd ([1]; source organism: Dengue virus 1 Brazil/97-11/1997): ≥ 50100 nM; Kd [11]: 8.94 nM

**Q.** For EWAMEKSSK, which IC50 [10, 21] is on record?
**A.** ≥ 382000 nM

**Q.** Which IC50 [10, 20] does the source give for FHKEGAFFL here?
**A.** 719 nM

**Q.** And the IC50 [12, 20]?
**A.** ≥ 97800 nM

**Q.** With FIDTIKSLDY as the sequence, how does the Kd [8, 18] read?
**A.** ≥ 70000 nM

**Q.** What about the Kd [9, 18] of the same sequence?
**A.** ≥ 70300 nM

**Q.** What about the Kd [2, 18] of the same sequence?
**A.** 506 nM

**Q.** What about the Kd [3, 18] of the same sequence?
**A.** ≥ 24900 nM

**Q.** And the Kd [4, 18]?
**A.** 4390 nM

**Q.** And the Kd [6, 18]?
**A.** 458 nM

**Q.** For FLFQLNDTI, which IC50 [10, 22] is on record?
**A.** 879 nM

**Q.** And the IC50 [12, 22]?
**A.** 257 nM

**Q.** FLHNYILYA was tested. Which Kd [7, 16] did it give?
**A.** 1560 nM

**Q.** FWITAIYVF was tested. Which Kd [8, 18] did it give?
**A.** 163 nM

**Q.** And the Kd [9, 18]?
**A.** 853 nM

**Q.** And the Kd [2, 18]?
**A.** 26.9 nM

**Q.** And the Kd [3, 18]?
**A.** 547 nM

**Q.** And the Kd [4, 18]?
**A.** 22.8 nM

**Q.** And the Kd [6, 18]?
**A.** 629 nM

**Q.** With GIFGAIAGF as the sequence, how does the Kd ([13]; source organism: Influenza A virus (A/equine/NewMarket/D64/79(H3N8))) read?
**A.** 288 nM

**Q.** Which Kd [8, 18] does the source give for GLAAEWVLAY here?
**A.** ≥ 70000 nM

**Q.** What about the Kd [9, 18] of the same sequence?
**A.** ≥ 70300 nM

**Q.** And the Kd [2, 18]?
**A.** 69.4 nM

**Q.** And the Kd [3, 18]?
**A.** 363 nM

**Q.** And the Kd [4, 18]?
**A.** 858 nM

**Q.** And the Kd [6, 18]?
**A.** 466 nM

**Q.** Which results are given for GLNISGYNY?
**A.** Kd [1, 23]: 16500 nM; Kd [2, 23]: 16.8 nM; Kd [3, 23]: ≥ 67900 nM; Kd [4, 23]: 95.7 nM; Kd [5, 23]: ≥ 39200 nM; Kd [6, 23]: 13400 nM

**Q.** What does the source list for GVVAFLILP?
**A.** IC50 [10, 20]: ≥ 194000 nM; IC50 [12, 20]: 53900 nM

**Q.** What does the source list for ICLSGEGWPY?
**A.** Kd [8, 24]: ≥ 56800 nM; Kd [1, 23]: ≥ 21200 nM; Kd [9, 24]: ≥ 70300 nM; Kd [5, 23]: 4290 nM

**Q.** Which Kd ([13]; source organism: Bacillus cereus G9241) does the source give for IEVKYSPMY here?
**A.** 221 nM

**Q.** For IGIEILNTI, which IC50 [10, 16] is on record?
**A.** 131 nM

**Q.** And the IC50 [12, 16]?
**A.** 701 nM

**Q.** Which Kd [7, 17] does the source give for IGKALHQVF here?
**A.** 374 nM

**Q.** For IQPFLALGF, which Kd [7, 15] is on record?
**A.** 16.5 nM

**Q.** ITLHLACGF was tested. Which Kd [1, 16] did it give?
**A.** 1.41 nM

**Q.** With IVINPFVKF as the sequence, how does the Kd [1, 16] read?
**A.** 3260 nM

**Q.** Which IC50 [10, 21] does the source give for KFPYEGGKV here?
**A.** ≥ 130000 nM

**Q.** What about the IC50 [12, 21] of the same sequence?
**A.** ≥ 96100 nM

**Q.** How did the Kd [7, 16] turn out when KGCKLTETM was run?
**A.** 1250 nM

**Q.** How did the Kd [7, 16] turn out when KIKHKGMSF was run?
**A.** 47.2 nM

**Q.** How did the IC50 [10, 20] turn out when KNSQKGQHI was run?
**A.** ≥ 615000 nM

**Q.** With KTGEKSRCY as the sequence, how does the Kd [1, 25] read?
**A.** 116 nM

**Q.** What about the Kd [2, 25] of the same sequence?
**A.** ≥ 78900 nM

**Q.** What about the Kd [3, 25] of the same sequence?
**A.** ≥ 77900 nM

**Q.** And the Kd [4, 25]?
**A.** 2190 nM

**Q.** What about the Kd [5, 25] of the same sequence?
**A.** 2480 nM

**Q.** And the Kd [6, 25]?
**A.** ≥ 22500 nM

**Q.** Which results are given for KTIARFTYF?
**A.** Kd [1, 16]: 95.2 nM; Kd [7, 16]: 0.195 nM

**Q.** How did the Kd ([1]; source organism: Dengue virus 4 Philippines/H241/1956) turn out when KTKLTDWDFV was run?
**A.** 15600 nM

**Q.** For KVIQLSRKTF, which Kd [7, 17] is on record?
**A.** 49.5 nM

**Q.** With LFRFFECTF as the sequence, how does the Kd [7, 16] read?
**A.** 3030 nM

**Q.** How did the Kd [1, 16] turn out when LIILSAVAI was run?
**A.** 125 nM
